Results reported in patent US20180118802A1 (published 2018).
Residue numbers refer to the chain shown, from its start. In names and notes the source's numbering stands.

T1: RAP d3 (human, UniProt P30533 235-353)
T1 construct: also called wild-type RAP d3
T1 sequence: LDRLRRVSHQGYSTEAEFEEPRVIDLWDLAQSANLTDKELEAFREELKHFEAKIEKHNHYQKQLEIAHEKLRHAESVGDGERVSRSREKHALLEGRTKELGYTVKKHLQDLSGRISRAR

T2: RAP-GDNF (UniProt P30533 35-353; P39905 78-211, limits assumed)
T2 construct: also called RAP-GDNF fusion
T2 sequence (looked up): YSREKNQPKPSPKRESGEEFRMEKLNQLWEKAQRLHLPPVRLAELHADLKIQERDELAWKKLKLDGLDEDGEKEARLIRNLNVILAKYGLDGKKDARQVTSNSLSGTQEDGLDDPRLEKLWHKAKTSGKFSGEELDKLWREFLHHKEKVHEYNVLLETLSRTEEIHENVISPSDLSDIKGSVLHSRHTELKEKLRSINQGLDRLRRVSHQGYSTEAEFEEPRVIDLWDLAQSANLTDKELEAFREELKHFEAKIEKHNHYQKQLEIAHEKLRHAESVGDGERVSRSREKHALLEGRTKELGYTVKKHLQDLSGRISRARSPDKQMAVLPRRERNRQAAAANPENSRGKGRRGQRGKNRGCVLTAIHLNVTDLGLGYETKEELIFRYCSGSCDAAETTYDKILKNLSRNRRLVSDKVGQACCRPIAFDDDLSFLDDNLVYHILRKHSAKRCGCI

B1: LRP2 CR89 (receptor)
chain: not shown
notes: domain: CR89; also called YVWR; not shown: N-terminal hexahistidine and S-peptide of pET30(+)a
B2: RAP d3 E251K (ligand, not shown: small tags and cut ends)
chain: T1 sequence with E51K
notes: Forward mutant of RAP d3; also called RAP E251K
B3: LRP2 CR89 V1047D (receptor, not shown: small tags and cut ends)
chain: PTEQCGLFSFPCKNGRCVPNYYLCDGDDDCHDNSDEQLCGTLNNTCSSSAFTCGHGECIPAHWRCDKRNDCVDGSDEHNCPTHA
notes: also called YDWR
B4: RAP d3 E251K, K270E (ligand, not shown: small tags and cut ends)
chain: T1 sequence with E51K, K70E
notes: Forward mutant of RAP d3; also called RAP E251K, K270E
B5: MegaRAP1 d3 A256K (ligand, not shown: small tags and cut ends)
chain: T1 sequence with S13T, E17K, H49Y, E51K, K70E
notes: Revertant of MegaRAP1 d3; also called MegaRAP1 A256K
B6: LRP2 CR89 V1047D R1088D (receptor, not shown: small tags and cut ends)
chain: B3 chain with R68D
notes: also called YDWD
B7: LRP2 CR89 R1088D (receptor, not shown: small tags and cut ends)
chain: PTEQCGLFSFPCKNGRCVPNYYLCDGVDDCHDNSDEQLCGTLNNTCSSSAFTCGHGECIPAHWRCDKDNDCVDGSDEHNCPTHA
notes: also called YVWD
B8: MegaRAP1 d3 A256K, E270K (ligand, not shown: small tags and cut ends)
chain: T1 sequence with S13T, E17K, H49Y, E51K
notes: Double revertant of MegaRAP1 d3; also called MegaRAP1 A256K, E270K
B9: LRP2 CR89 Y1042W (receptor, not shown: small tags and cut ends)
chain: B3 chain with Y22W, D27V
notes: also called WVWR
B10: RAP d3 K256A, K270E (ligand, not shown: small tags and cut ends)
chain: T1 sequence with K56A, K70E
notes: Forward mutant of RAP d3; also called RAP K256A, K270E
B11: RAP d3 E217K (ligand, not shown: small tags and cut ends)
chain: T1 sequence with E17K
notes: Forward mutant of RAP d3; also called RAP E217K
B12: MegaRAP1 d3 K251E (ligand, not shown: small tags and cut ends)
chain: T1 sequence with S13T, E17K, H49Y, K56A, K70E
notes: Revertant of MegaRAP1 d3; also called MegaRAP1 K251E
B13: MegaRAP1 d3 E270K (ligand, not shown: small tags and cut ends)
chain: T1 sequence with S13T, E17K, H49Y, E51K, K56A
notes: Revertant of MegaRAP1 d3; also called MegaRAP1 E270K
B14: RAP d3 K270E (ligand, not shown: small tags and cut ends)
chain: T1 sequence with K70E
notes: Forward mutant of RAP d3; also called RAP K270E
B15: RAP d3 H249Y (ligand, not shown: small tags and cut ends)
chain: T1 sequence with H49Y
notes: Forward mutant of RAP d3; also called RAP H249Y
B16: GFRα-1 (receptor)
chain: DRLDCVKASDQCLKEQSCSTKYRTLRQCVAGKETNFSLASGLEAKDECRSAMEALKQKSLYNCRCKRGMKKEKNCLRIYWSMYQSLQGNDLLEDSPYEPVNSRLSDIFRVVPFISDVFQQVEHIPKGNNCLDAAKACNLDDICKKYRSAYITPCTTSVSNDVCNRRKCHKALRQFFDKVPAKHSYGMLFCSCRDIACTERRRQTIVPVCSYEEREKPNCLNLQDSCKTNYICRSRLADFFTNCQPESRSVSSCLKENYADCLLAYSGLIGTVMTPNYIDSSSLSVAPWCDCSNSGNDLEECLKFLNFFKDNTCLKNAIQAFGNGSDVTVWQPAFPVQTTTATTTTALRVKNKPLGPAGSENEIPTHVLPPCANLQAQKLKSNVSGNTHLCISNGNYEKEGLGASS

Experiments:
RAP d3 [1] = biological target: T1, RAP d3; experiment: solid-phase binding assay, CR protein coated, anti-RAP detection
Description: (§1) Alternatively, the affinity differences between MegaRAP I d3 and MegaRAP1 d3 E270K may have been insufficient to alloW the latter to predominate upon iterative panning. A double revertant, T213S, E270K, had binding behavior that was not distinguishable from MegaRAP1 d3 in our assays. […] The binding behavior of the K251E, E270K double revertant implies a strong dependence of the affinity of MegaRAP1 d3 for LRP2 CR89 on the E251K mutation. […] Therefore, the K256A mutation in MegaRAP1 d3 is a crucial determinant of the ability of this variant to discriminate between the two receptor fragments, exerting its effect by negatively impacting affinity for LRP1 CR3-5 while at the same time improving affinity for LRP2 CR89.

LRP2 CR89 [2] = biological target: B1; experiment: as above
Procedure: (§2) Wells were washed with TBSTC and bound ligands detected with polyclonal anti-RAP (BP41/42, 1:1,000, BioMarin). Excess primary antibody was removed and wells washed before incubation with the secondary antibody, HRP-conjugated goat anti rabbit IgG (Bio-Rad). After washing, TMB substrate solutions (Bio-Rad) were added to detect HRP. Color development was stopped with 1N HCl. Absorption at 450 nm was measured with a microplate spectrophotometer (Molecular Devices). Data were plotted and Kd values derived by non-linear regression with the assumption of single-site binding (GraphPad Prism).
(§3) Next, the binding of RAP d3 and MegaRAP1 d3 proteins to LRP1 CR3-5 and LRP2 CR89 was assessed. […] In all cases, 10 mM EGTA prevented binding of both RAP d3 and MegaRAP1 d3 to CR proteins. Since calcium was the only divalent metal ion present in the binding buffer, this observation is consistent with both RAP d3 and MegaRAP1 d3 binding to calcium-loaded CR pairs. […] Therefore, wild-type RAP d3 and MegaRAP1 d3 have inverted binding preferences for these two receptor fragments.
Target sequence in this assay (P98164 1025-1102): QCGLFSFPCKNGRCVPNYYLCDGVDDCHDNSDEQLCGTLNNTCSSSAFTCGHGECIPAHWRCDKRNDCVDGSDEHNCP

RAP d3 [3] = biological target: T1, RAP d3; experiment: as above; remark: listed apart in the source
Procedure: Solid phase binding assays—Purified, refolded CR protein (1 μg) was bound to Nunc Maxisorp™ 96-well plates in TBS pH 8 supplemented with 5 mM CaCl₂ (TBSC) overnight at 4° C. Wells were washed with TBSC and then blocked with TBSC containing 2% bovine serum albumin (BSA). RAP ligands were then incubated with the immobilized receptor at a range of concentrations for 2 hours in the above blocking buffer supplemented with 0.05% Tween-20 at room temperature. Control wells contained no added ligand. As an additional control, to determine whether the absence of calcium affected binding, 10 mM EGTA was included in the incubation medium for some samples. Wells were washed with TBSTC and bound ligands detected with polyclonal anti-RAP (BP41/42, 1:1,000, BioMarin). Excess primary antibody was removed and wells washed before incubation with the secondary antibody, HRP-conjugated goat anti rabbit IgG (Bio-Rad). After washing, TMB substrate solutions (Bio-Rad) were added to detect HRP. Color development was stopped with 1N HCl. Absorption at 450 nm was measured with a microplate spectrophotometer (Molecular Devices). Data were plotted and Kd values derived by non-linear regression with the assumption of single-site binding (GraphPad Prism).
One premise of this work was that amino acids at A, C, A′ and C′ within the calcium-binding loops of a CR pair were key determinants of binding affinity for RAP and would be similarly important for binding of RAP variants. To test this idea, mutant LRP2 CR89 were prepared in which the native, non-canonical residues at these positions were sequentially substituted with the non-native, canonical residues. As defined above, the A, C, A′, C′ string for LRP2 CR89 is YVWR. Mutants included LRP2 CR89 Y1042W (WVWR), LRP2 CR89 V1047D (YDWR), LRP2 CR89 R1088D (YVWD), LRP2 CR89 V1047D R1088D (YDWD), LRP2 CR89 Y1042W V1047D R1088D (WDWD), LRP2 CR89 Y1042W V1047D (WDWR), LRP2 CR89 Y1042W R1088D (WVWD). Binding to both RAP d3 and MegaRAP1 d3 were measured for each LRP2 CR89 mutant by solid-phase assay.

LRP2 CR89 [4] = biological target: B1; experiment: as above; remark: listed apart in the source
Description: as §1
Target sequence in this assay (P98164 1025-1102): as above

LRP1 CR3-5 = biological target: T3, LRP1 CR3-5 (human, UniProt Q07954 852-973); experiment: as above
T3 construct: range 852-973; not shown: N-terminal hexahistidine and S-peptide of pET30(+)a
T3 sequence (Q07954 852-973, form in doubt): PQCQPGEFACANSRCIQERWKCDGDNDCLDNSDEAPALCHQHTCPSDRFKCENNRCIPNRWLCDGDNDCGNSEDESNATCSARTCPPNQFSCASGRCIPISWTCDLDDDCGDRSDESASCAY
Procedure: as §2, §3

RAP-GDNF = biological target: T2, RAP-GDNF; experiment: solid-phase assay, RAP-GDNF coated, serial dilutions of GFRα-1 (FIG. 12)

Row | binding result (LRP2 CR89 [2]) | Binder | other results
1 | – | B1 | Kd (RAP d3 [1]): > 300 nM
2 | no binding | B2 | –
3 | – | B3 | binding result (RAP d3 [3]): no binding
4 | no binding | B4 | –
5 | no binding | B5 | –
6 | – | B6 | binding result (RAP d3 [3]): no binding
7 | – | B7 | binding result (RAP d3 [3]): no binding
8 | – | B8 | fold loss of affinity (LRP2 CR89 [4]): 2 fold
9 | – | B9 | binding result (RAP d3 [3]): no binding
10 | no binding | B10 | –
11 | no binding | B11 | –
12 | no binding | B12 | –
13 | – | B13 | % max (LRP1 CR3-5): 85%
14 | no binding | B14 | –
15 | no binding | B15 | –
16 | – | B16 | Kd (RAP-GDNF): ~5 ng/mL
